According to paper PMC8828546, “OsWRKY53 Promotes Abscisic Acid Accumulation to Accelerate Leaf Senescence and Inhibit Seed Germination by Downregulating Abscisic Acid Catabolic Genes in Rice”:

Target: OsWRKY53 (Oryza sativa (rice), UniProt A7BEY7 1-487)
Assay: EMSA; unlabeled probe competitor at 10-, 50-, 100-fold also run (outcome only in gel); EMSA: room temperature, 20 min; binding buffer, salt and pH not stated; 6% native acrylamide gel, 0.5x TBE, 4 C, 110 V, 2 h
Conditions: protein: recombinant; tags: His; TF (pCold-TF vector); label: 5'-FAM on one strand; annealed with complementary oligo

Sequence of OsWRKY53 (A7BEY7 entry or part of it): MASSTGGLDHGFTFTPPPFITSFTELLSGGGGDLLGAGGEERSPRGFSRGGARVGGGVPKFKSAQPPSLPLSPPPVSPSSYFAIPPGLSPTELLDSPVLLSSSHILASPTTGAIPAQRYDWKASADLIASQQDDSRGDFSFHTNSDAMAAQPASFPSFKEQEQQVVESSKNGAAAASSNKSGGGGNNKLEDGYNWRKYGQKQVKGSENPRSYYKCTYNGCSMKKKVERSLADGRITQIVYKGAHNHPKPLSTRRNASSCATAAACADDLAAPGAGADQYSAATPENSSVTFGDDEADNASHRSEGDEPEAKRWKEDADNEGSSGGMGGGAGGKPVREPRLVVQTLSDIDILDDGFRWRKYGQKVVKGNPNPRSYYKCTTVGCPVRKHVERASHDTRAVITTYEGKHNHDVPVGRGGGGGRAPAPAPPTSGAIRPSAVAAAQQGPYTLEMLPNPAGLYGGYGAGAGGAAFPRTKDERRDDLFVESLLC

B1: OsABA8ox1 promoter W-box probe (dsDNA)
DNA 1: ACAGGTTGACCTTTGCAT
DNA 2: ATGCAAAGGTCAACCTGT
- binding result: binds
